Experimental findings from patent publication US20030180744, “High affinity oligonucleotide ligands to growth factors” (GILEAD SCIENCES, INC., published 2003) are described below.

The data set has as its target TGFβ1 (Homo sapiens, UniProt P01137 P01137:279-390). Kind of data set: cell_activity; second value 201 nM.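 Further: inhibition of TGFβ1-induced luciferase reporter expression in mink lung epithelial cells.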 The conditions noted are these: tags: Genentech or R&D Systems; chain copies: 2. The method, then: Mink lung epithelial cells (MLEC) carrying the Pail/luc construct were maintained in DME containing 10% fetal bovine serum and 400 μg/ml G418. MLEC-Pail/luc cells were plated at 3.2×10⁴ cells per well in a 96 well Falcon plate, in 100 μl of DME+10% fetal bovine serum overnight. Media was made from autoclaved water. The cells were washed three times ([…]) in serum free DME plus Solution A (1:1). Solution A is 30 mM Hepes pH 7.6, 10 mM glucose, 3.0 mM KCl, 131 mM NaCl, 1.0 mM disodium phosphate. Samples (100 μl) were added in DME containing 20 mM Hepes pH 7.5, and 0.1% BSA (Fluka, radioimmunoassay grade). All samples were in triplicate. After six hours at 37° C. in a 5% CO₂ incubator the media was removed and cells were washed three times (100 μl each) in cold PBS. Lysis buffer (75 μl) (Analytical Luminescence Laboratory) was added and the plates incubated on ice for 20 min. The plates were sealed and frozen at −80° C. until assayed. Samples (25 μl) were assayed for luciferase activity with the Enhanced Luciferase Assay Kit from Analytical Luminescence Laboratory (San Diego, Calif., USA) according to the manufacturer's instructions using the Berthold Microlumat LB96P luminometer.
Ligands tested for inhibition of TGFβ1 activity were tested at a minimum of five concentrations. […]

TGFβ1, sequence (P01137 279-390, one chain of several): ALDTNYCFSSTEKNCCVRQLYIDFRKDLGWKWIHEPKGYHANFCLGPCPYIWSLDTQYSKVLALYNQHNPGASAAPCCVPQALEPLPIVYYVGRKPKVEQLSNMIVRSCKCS

B1: lib2-6-1-81 (ssRNA)
RNA: GGGGGAGAACGCGGAUCCUGUCUCCACCGCCGAUACUGGGGUUCCUGGGGCCCCUCCAUGCAGGAGGGGGGUGGUUCGGAG
modifications: 2'-NH2-U, 2'-F-C
The term IC50 denotes the midpoint of a concentration-inhibition curve. A low value points to inhibition by little substance. For B1, half-maximal inhibition (IC50) required 298 nM.
